Test [1] has as its target T1, FcγRIIb extracellular domain with C-terminal His tag (human, UniProt P31994 43-217).
T1 construct: extracellular domain; also called FcgRIIb
T1 sequence (looked up): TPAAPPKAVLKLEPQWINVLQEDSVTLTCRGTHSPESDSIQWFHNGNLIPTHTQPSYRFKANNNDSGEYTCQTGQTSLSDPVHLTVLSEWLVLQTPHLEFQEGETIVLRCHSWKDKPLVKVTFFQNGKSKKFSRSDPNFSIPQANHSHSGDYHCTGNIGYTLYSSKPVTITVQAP
As to the kind of experiment: SPR, captured antibody, FcgR analyte.
Procedure: (§1) Relative binding activities were calculated for the results of analyzing interactions with the respective FcγRs according to the following method.

Test [2] addresses T2, FcγRIa extracellular domain with C-terminal His tag (human, UniProt P12314 16-292).
T2 construct: also called FcgRIa
As to the kind of experiment: SPR, captured antibody, FcgR analyte.
Procedure: as §1

Test [3] addresses T3, FcγRIIa type R (human, UniProt P12318 34-217).
T3 chain: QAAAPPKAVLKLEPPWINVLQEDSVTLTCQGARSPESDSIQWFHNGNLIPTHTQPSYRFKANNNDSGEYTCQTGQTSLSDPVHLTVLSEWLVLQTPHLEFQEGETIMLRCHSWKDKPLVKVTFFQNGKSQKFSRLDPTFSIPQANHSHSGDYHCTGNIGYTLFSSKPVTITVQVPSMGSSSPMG
As to the kind of experiment: SPR (Biacore), captured antibody, soluble FcγR.

T2 sequence (P12314 16-292): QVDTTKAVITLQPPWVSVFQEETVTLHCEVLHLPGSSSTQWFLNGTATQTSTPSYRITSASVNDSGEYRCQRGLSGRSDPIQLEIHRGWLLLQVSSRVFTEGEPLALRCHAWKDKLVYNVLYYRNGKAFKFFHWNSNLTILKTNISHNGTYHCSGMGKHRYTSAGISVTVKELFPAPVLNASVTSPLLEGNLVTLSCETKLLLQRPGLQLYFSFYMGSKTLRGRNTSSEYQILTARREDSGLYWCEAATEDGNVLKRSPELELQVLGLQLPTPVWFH

B1: IL6R-2B261/IL6R-L (antibody, human IgG1, kappa)
heavy: QVQLQESGPGLVKPSETLSLTCAVSGHSISHDHAWSWVRQPPGEGLEWIGFISYSGITNYNPSLQGRVTISRDNSKNTLYLQMNSLRAEDTAVYYCARSLARTTAMDYWGEGTLVTVSSASTKGPSVFPLAPSSKSTSGGTAALGCLVKDYFPEPVTVSWNSGALTSGVHTFPAVLQSSGLYSLSSVVTVPSSSLGTQTYICNVNHKPSNTKVDKKVEPKSCDKTHTCPPCPAPDLLGGDSVFLFPPKPKDTLMISRTPEVTCVVVDVSHEDPEVKFNWYVDGVEVHNAKTKPREEQDNSTYRVVSVLTVLHQDWLNGKEYKCKVSNKALPAPIEKTISKAKGQPREPQVYTLPPSRDELTKNQVSLTCLVKGFYPSDIAVEWESNGQPENNYKTTPPVLDSDGSFFLYSKLTVDKSRWQQGNVFSCSVMHEALHNHYTQESLSLSP
light: not shown
Take B1: the relative binding activity in test [1] was 115 relative (IL6R-BF648/IL6R-L = 100); in test [2], 100 relative (IL6R-BF648/IL6R-L = 100).

B2: IL6R-BP083/IL6R-L (antibody, human IgG1, kappa)
heavy: QVQLQESGPGLVKPSETLSLTCAVSGHSISHDHAWSWVRQPPGEGLEWIGFISYSGITNYNPSLQGRVTISRDNSKNTLYLQMNSLRAEDTAVYYCARSLARTTAMDYWGEGTLVTVSSASTKGPSVFPLAPSSKSTSGGTAALGCLVKDYFPEPVTVSWNSGALTSGVHTFPAVLQSSGLYSLSSVVTVPSSSLGTQTYICNVNHKPSNTKVDKKVEPKSCDKTHTCPPCPAPELLGGDSVFLFPPKPKDTLMISRTPEVTCVVVDVSHEDPEVKFNWYVDGVEVHNAKTKPREEQDNSTYRVVSVLTVLHQDWLNGKEYKCKVSNKALPKPIEKTISKAKGQPREPQVYTLPPSRDELTKNQVSLTCLVKGFYPSDIAVEWESNGQPENNYKTTPPVLDSDGSFFLYSKLTVDKSRWQQGNVFSCSVMHEALHNHYTQESLSLSP
light: not shown
Take B2: the values for the relative binding activity in test [1] and in test [2] were 122 relative (IL6R-BF648/IL6R-L = 100) and 50 relative (IL6R-BF648/IL6R-L = 100), respectively.

B3: IL6R-BP085/IL6R-L (antibody, human IgG1, kappa)
heavy: QVQLQESGPGLVKPSETLSLTCAVSGHSISHDHAWSWVRQPPGEGLEWIGFISYSGITNYNPSLQGRVTISRDNSKNTLYLQMNSLRAEDTAVYYCARSLARTTAMDYWGEGTLVTVSSASTKGPSVFPLAPSSKSTSGGTAALGCLVKDYFPEPVTVSWNSGALTSGVHTFPAVLQSSGLYSLSSVVTVPSSSLGTQTYICNVNHKPSNTKVDKKVEPKSCDKTHTCPPCPAPELLGDDSVFLFPPKPKDTLMISRTPEVTCVVVDVSHEDPEVKFNWYVDGVEVHNAKTKPREEQYNSTYRVVSVLTVLHQDWLNGKEYKCKVSNKALPKPIEKTISKAKGQPREPQVYTLPPSRDELTKNQVSLTCLVKGFYPSDIAVEWESNGQPENNYKTTPPVLDSDGSFFLYSKLTVDKSRWQQGNVFSCSVMHEALHNHYTQESLSLSP
light: not shown
Take B3: the relative binding activity was 152 relative (IL6R-BF648/IL6R-L = 100) in test [1] and 19 relative (IL6R-BF648/IL6R-L = 100) in test [2].

B4: IL6R-BP264/IL6R-L (antibody, human IgG1, kappa)
heavy: QVQLQESGPGLVKPSETLSLTCAVSGHSISHDHAWSWVRQPPGEGLEWIGFISYSGITNYNPSLQGRVTISRDNSKNTLYLQMNSLRAEDTAVYYCARSLARTTAMDYWGEGTLVTVSSASTKGPSVFPLAPSSKSTSGGTAALGCLVKDYFPEPVTVSWNSGALTSGVHTFPAVLQSSGLYSLSSVVTVPSSSLGTQTYICNVNHKPSNTKVDKKVEPKSCDKTHTCPPCPAPDLLGDDSVFLFPPKPKDTLMISRTPEVTCVVVDVSEEDGEVKFNWYVDGVEVHNAKTKPREEQDNSTYRVVSVLTVLHQDWLNGKEYKCKVSNKALPRPIEKTISKAKGQPREPQVYTLPPSRDELTKNQVSLTCLVKGFYPSDIAVEWESNGQPENNYKTTPPVLDSDGSFFLYSKLTVDKSRWQQGNVFSCSVMHEALHNHYTQESLSLSP
light: not shown
notes: E233D/G237D/P238D/H268E/P271G/Y296D/A330R (EU numbering) in IL6R-B3
In test [3], B4 yielded a Kd of 350 nM.

B5: IL6R-BP191/IL6R-L (antibody, human IgG1, kappa)
heavy: QVQLQESGPGLVKPSETLSLTCAVSGHSISHDHAWSWVRQPPGEGLEWIGFISYSGITNYNPSLQGRVTISRDNSKNTLYLQMNSLRAEDTAVYYCARSLARTTAMDYWGEGTLVTVSSASTKGPSVFPLAPSSKSTSGGTAALGCLVKDYFPEPVTVSWNSGALTSGVHTFPAVLQSSGLYSLSSVVTVPSSSLGTQTYICNVNHKPSNTKVDKKVEPKSCDKTHTCPPCPAPDLLGGDSVFLFPPKPKDTLMISRTPEVTCVVVDVSDEDGEVKFNWYVDGVEVHNAKTKPREEQYNSTYRVVSVLTVLHQDWLNGKEYKCKVSNAALPKPIEKTISKAKGQPREPQVYTLPPSRDELTKNQVSLTCLVKGFYPSDIAVEWESNGQPENNYKTTPPVLDSDGSFFLYSKLTVDKSRWQQGNVFSCSVMHEALHNHYTQESLSLSP
light: not shown
In the case of B5, the relative binding activity in test [2] is 125 relative (IL6R-BF648/IL6R-L = 100).

B6: IL6R-BP086/IL6R-L (antibody, human IgG1, kappa)
heavy: QVQLQESGPGLVKPSETLSLTCAVSGHSISHDHAWSWVRQPPGEGLEWIGFISYSGITNYNPSLQGRVTISRDNSKNTLYLQMNSLRAEDTAVYYCARSLARTTAMDYWGEGTLVTVSSASTKGPSVFPLAPSSKSTSGGTAALGCLVKDYFPEPVTVSWNSGALTSGVHTFPAVLQSSGLYSLSSVVTVPSSSLGTQTYICNVNHKPSNTKVDKKVEPKSCDKTHTCPPCPAPELLGGDSVFLFPPKPKDTLMISRTPEVTCVVVDVSHEDPEVKFNWYVDGVEVHNAKTKPREEQYNSTYRVVSVLTVLHQDWLNGKEYKCKVSNAALPKPIEKTISKAKGQPREPQVYTLPPSRDELTKNQVSLTCLVKGFYPSDIAVEWESNGQPENNYKTTPPVLDSDGSFFLYSKLTVDKSRWQQGNVFSCSVMHEALHNHYTQESLSLSP
light: not shown
For B6, the relative binding activity in test [1] is 137 relative (IL6R-BF648/IL6R-L = 100); in test [2], 72 relative (IL6R-BF648/IL6R-L = 100).

B7: IL6R-BP129/IL6R-L (antibody, human IgG1, kappa)
heavy: QVQLQESGPGLVKPSETLSLTCAVSGHSISHDHAWSWVRQPPGEGLEWIGFISYSGITNYNPSLQGRVTISRDNSKNTLYLQMNSLRAEDTAVYYCARSLARTTAMDYWGEGTLVTVSSASTKGPSVFPLAPSSKSTSGGTAALGCLVKDYFPEPVTVSWNSGALTSGVHTFPAVLQSSGLYSLSSVVTVPSSSLGTQTYICNVNHKPSNTKVDKKVEPKSCDKTHTCPPCPAPDLLGGDSVFLFPPKPKDTLMISRTPEVTCVVVDVSHEDPEVKFNWYVDGVEVHNAKTKPREEQDNSTYRVVSVLTVLHQDWLNGKEYKCKVSNKALPKPIEKTISKAKGQPREPQVYTLPPSRDELTKNQVSLTCLVKGFYPSDIAVEWESNGQPENNYKTTPPVLDSDGSFFLYSKLTVDKSRWQQGNVFSCSVMHEALHNHYTQESLSLSP
light: not shown
For the molecule B7, the relative binding activity is 138 relative (IL6R-BF648/IL6R-L = 100) in test [1] and 68 relative (IL6R-BF648/IL6R-L = 100) in test [2].

B8: IL6R-BP253/IL6R-L (antibody, human IgG1, kappa)
heavy: QVQLQESGPGLVKPSETLSLTCAVSGHSISHDHAWSWVRQPPGEGLEWIGFISYSGITNYNPSLQGRVTISRDNSKNTLYLQMNSLRAEDTAVYYCARSLARTTAMDYWGEGTLVTVSSASTKGPSVFPLAPSSKSTSGGTAALGCLVKDYFPEPVTVSWNSGALTSGVHTFPAVLQSSGLYSLSSVVTVPSSSLGTQTYICNVNHKPSNTKVDKKVEPKSCDKTHTCPPCPAPELLGGPSVFLFPPKPKDTLMISRTPEVTCVVVDVEHEDPEVKFNWYVDGVEVHNAKTKPREEQYNSTYRVVSVLTVLHQDWLNGKEYKCKVSNKAFPAPIEKTISKAKGQPREPQVYTLPPSRDELTKNQVSLTCLVKGFYPSDIAVEWESNGQPENNYKTTPPVLDSDGSFFLYSKLTVDKSRWQQGNVFSCSVMHEALHNHYTQESLSLSP
light: not shown
notes: S267E/L328F (EU numbering) in IL6R-B3; comparative control
In test [3], B8 showed an equilibrium dissociation constant (Kd) of 2.1 nM.

B9: IL6R-BP428/IL6R-L (antibody, human IgG1, kappa)
heavy: QVQLQESGPGLVKPSETLSLTCAVSGHSISHDHAWSWVRQPPGEGLEWIGFISYSGITNYNPSLQGRVTISRDNSKNTLYLQMNSLRAEDTAVYYCARSLARTTAMDYWGEGTLVTVSSASTKGPSVFPLAPSSKSTSGGTAALGCLVKDYFPEPVTVSWNSGALTSGVHTFPAVLQSSGLYSLSSVVTVPSSSLGTQTYICNVNHKPSNTKVDKKVEPKSCDKTHTCPPCPAPDLLGDDSVFLFPPKPKDTLMISRTPEVTCVVVDVGEEDGEVKFNWYVDGVEVHNAKTKPREEQYNSTYRVVSVLTVLHQDWLNGKEYKCKVSNKALPRPIEKTISKAKGQPREPQVYTLPPSRDELTKNQVSLTCLVKGFYPSDIAVEWESNGQPENNYKTTPPVLDSDGSFFLYSKLTVDKSRWQQGNVFSCSVMHEALHNHYTQESLSLSP
light: not shown
notes: Alterations in EU numbering, introduced into IL6R-B3
In test [3], B9 yielded a Kd of 390 nM.

B10: IL6R-BP181/IL6R-L (antibody, human IgG1, kappa)
heavy: QVQLQESGPGLVKPSETLSLTCAVSGHSISHDHAWSWVRQPPGEGLEWIGFISYSGITNYNPSLQGRVTISRDNSKNTLYLQMNSLRAEDTAVYYCARSLARTTAMDYWGEGTLVTVSSASTKGPSVFPLAPSSKSTSGGTAALGCLVKDYFPEPVTVSWNSGALTSGVHTFPAVLQSSGLYSLSSVVTVPSSSLGTQTYICNVNHKPSNTKVDKKVEPKSCDKTHTCPPCPAPDLLGGDSVFLFPPKPKDTLMISRTPEVTCVVVDVSHEDGEVKFNWYVDGVEVHNAKTKPREEQYNSTYRVVSVLTVLHQDWLNGKEYKCKVSNAALPKPIEKTISKAKGQPREPQVYTLPPSRDELTKNQVSLTCLVKGFYPSDIAVEWESNGQPENNYKTTPPVLDSDGSFFLYSKLTVDKSRWQQGNVFSCSVMHEALHNHYTQESLSLSP
light: not shown
As to B10, the relative binding activity in test [2] was 108 relative (IL6R-BF648/IL6R-L = 100).

B11: IL6R-BP082/IL6R-L (antibody, human IgG1, kappa)
heavy: QVQLQESGPGLVKPSETLSLTCAVSGHSISHDHAWSWVRQPPGEGLEWIGFISYSGITNYNPSLQGRVTISRDNSKNTLYLQMNSLRAEDTAVYYCARSLARTTAMDYWGEGTLVTVSSASTKGPSVFPLAPSSKSTSGGTAALGCLVKDYFPEPVTVSWNSGALTSGVHTFPAVLQSSGLYSLSSVVTVPSSSLGTQTYICNVNHKPSNTKVDKKVEPKSCDKTHTCPPCPAPDLLGGDSVFLFPPKPKDTLMISRTPEVTCVVVDVSHEDPEVKFNWYVDGVEVHNAKTKPREEQYNSTYRVVSVLTVLHQDWLNGKEYKCKVSNKALPKPIEKTISKAKGQPREPQVYTLPPSRDELTKNQVSLTCLVKGFYPSDIAVEWESNGQPENNYKTTPPVLDSDGSFFLYSKLTVDKSRWQQGNVFSCSVMHEALHNHYTQESLSLSP
light: not shown
In the case of B11, the relative binding activity in test [1] was 136 relative (IL6R-BF648/IL6R-L = 100); in test [2] it was 74 relative (IL6R-BF648/IL6R-L = 100).

The record behind these values is patent US20210261648A1 (published 2021).
